The labels stand for the following.
B1: WCSL IgG1 (sheet row 16) (antibody, V domains shown)
VH: QITLKESGPTLVKPTQTLTLTCTFSGFSLSTSGVGVGWIRQPPGKALEWLALIYWDDDKRYSPSLKSRLTITRDTSKNLVVLTMINMDPVDTATYYCAHSHSTTWGAFDYWGQGTLVTVSS
VL: DIVMTQSPDSLAVSLGERATINCKSSRSVLYTYNNKDDVAWYQQKPGQPPKLLIYWASTRESGVPDRFSGSGSGTDFTLTISSLQAEDVAVYYCQQYYSAPLTFGGGPRWRSN
B2: WCSL IgG1 (sheet row 4) (antibody, V domains shown)
VH: EVQLLESGGGLVQPGGSLRLSCAASGFTFRNYAMSWVRQAPGKGLEWVSAISGSGSGTYYADSVKGRFTISRDNSKNTLYLQMNSLRAEDTAVYYCAKEGARIHWGQGTLVTVSS
VL: not shown
B3: WCSL IgG1 (sheet row 9) (antibody, V domains shown)
VH: B2 VH with L5V
VL: DIVMTQSPLSLSVTPGEPASISCRSSQSLLHSNGNNYFDWYLQKPGQAPQLLIYLGSNRASGVPDRFSGSGSGTDFTLKISRVEAEDVGVYYCMQALQTPWTFGQGTKVEIK
B4: WCSL IgG1 (sheet row 8) (antibody, V domains shown)
VH: QLQLQESGPGLVKPSETLSLTCTVSGGSISSSSYYWGWIRQPPGKGLEWIGSIYYSGSTYYNPSLKSRVTISVDTSKNQFSLKLSSVTAADTAVYYCASSPRNWGSPRFAFDIWGQGTMVTVSS
VL: QSVLTQPPSVSGAPGQRVTISCTGTTSNIGAGYDVHWYQQLPGTAPKLLIFGNTNRPSGVPERFSASRSGTSASLAITGLQTTDEADYYCQSYDNSLSGSRVFGGGTKLTVL
B5: WCSL IgG1 (sheet row 18) (antibody, V domains shown)
VH: EVQLVESGGGVVQPGRSLRLSCAASGFTFSSYGMHWVRQAPGKGLEWVSYIYPSGGGAYYADSVQGRFTVSRDNAKNSVYLQMNSLRVEDTAVYYCTRDFWSAPIPMWGQGTLVTVSS
VL: B3 VL with L9V, S12P, N35H, F38L, D39N, A48S, Q50H, K79N
B6: WCSL IgG1 (sheet row 19) (antibody, V domains shown)
VH: EVQLVESGGGVVQPGRSLRLSCAASGFTFSNYAMSWVRQAPGKGLEWVSGISGSGGSTYYADSVKGRFTISRDNSKNTLYLQMNSLRAEDTAVYYCARDRGYSYAAFQHWGQGTLVTVSS
VL: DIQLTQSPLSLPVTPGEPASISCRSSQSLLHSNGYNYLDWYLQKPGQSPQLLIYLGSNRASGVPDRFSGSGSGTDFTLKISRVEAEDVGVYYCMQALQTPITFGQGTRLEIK
B7: WCSL IgG1 (sheet row 10) (antibody, V domains shown)
VH: EVQLVESGGGLVKPGGSLRLSCAASGFTFSSYSMNWVRQAPGKGLEWVSSISSSSGYIYYSDSLKGRFTISRDNAKNSLYLQMNSLTAEDTAVYYCAREGHIASRGWGWFDSWGQGTLVTVSS
VL: DIVMTQSPVSLAVTPGESASISCRSSQSLLHRNGYNYVDWYLQKPGQSPQLLIYLGSTRASGVPDRFSGSGSGTDFSLQITRVEAEDVGVYYCMQPLEIPLTFGGGTKLEIK
B8: WCSL IgG1 (sheet row 12) (antibody, V domains shown)
VH: EVQLLESGGGLVQPGGSLRLSCAASGFTFSSYWMHWVRQAPGKGLEWVSAISGSGGSTYYADSVKGRFTISRDNSKNTLYLQMNSLRAEDTAVYYCARDTPLYYDFWSGDAFDIWGQGTMVTVSS
VL: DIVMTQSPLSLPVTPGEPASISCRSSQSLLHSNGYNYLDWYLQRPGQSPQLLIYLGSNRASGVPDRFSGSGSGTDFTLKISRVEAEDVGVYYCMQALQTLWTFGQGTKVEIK
B9: WCSL IgG1 (sheet row 13) (antibody, V domains shown)
VH: EVQLVESGGGLVKPGGSLRLSCAASGFTFSSYSMNWVRQAPGKGLEWVSSISSSSSYIYYADSVKGRFTISRDNAKNSLYLQMNSLRAEDTAVYYCARATTVVTPGYFQHWGQGTLVTVSS
VL: EIVLTQSPATLSLSPGQRATLSCRASQSVSSSLAWYQQKPGQAPRLLIYDASDRATDIPARFSGSGSGTDFTLTISSLEPEDFAVYYCQQRTNWPPLTFGGGTKVEIK
B10: WCSL IgG1 (sheet row 6) (antibody, V domains shown)
VH: QVQLVESGGGLIQPGGSLRLSCAASGFLVSSKYMSWVRQAPGKGLEWVSSIYSGGDTYYADSVKGRFTISRDNSKNTLSLQMHSLKADDTAVYYCARGATGYSDSWYENWGQGTLVTVSS
VL: B3 VL with S12P, S25P, F38L, A48S, K79R, R82S, T99N, W101L, K108R, V109L
B11: WCSL IgG1 (sheet row 14) (antibody, V domains shown)
VH: VESGGGLVQPGGSLRLSCVASGAASGFTFSTESMNWVRQAPGKGLEWVSYIYPSGGGAYYADSVQGRFTVSRDNAKNSVYLQMNSLRVEDTAVYYCVRHQYGDYPSWGQGTPVTVSS
VL: B3 VL with N35F, A48S, A96G, T99I, W101Y, V109L

Substitutions are numbered along the chain they refer to.

Sequence of recombinant human ACE2 (Q9BYF1 18-805): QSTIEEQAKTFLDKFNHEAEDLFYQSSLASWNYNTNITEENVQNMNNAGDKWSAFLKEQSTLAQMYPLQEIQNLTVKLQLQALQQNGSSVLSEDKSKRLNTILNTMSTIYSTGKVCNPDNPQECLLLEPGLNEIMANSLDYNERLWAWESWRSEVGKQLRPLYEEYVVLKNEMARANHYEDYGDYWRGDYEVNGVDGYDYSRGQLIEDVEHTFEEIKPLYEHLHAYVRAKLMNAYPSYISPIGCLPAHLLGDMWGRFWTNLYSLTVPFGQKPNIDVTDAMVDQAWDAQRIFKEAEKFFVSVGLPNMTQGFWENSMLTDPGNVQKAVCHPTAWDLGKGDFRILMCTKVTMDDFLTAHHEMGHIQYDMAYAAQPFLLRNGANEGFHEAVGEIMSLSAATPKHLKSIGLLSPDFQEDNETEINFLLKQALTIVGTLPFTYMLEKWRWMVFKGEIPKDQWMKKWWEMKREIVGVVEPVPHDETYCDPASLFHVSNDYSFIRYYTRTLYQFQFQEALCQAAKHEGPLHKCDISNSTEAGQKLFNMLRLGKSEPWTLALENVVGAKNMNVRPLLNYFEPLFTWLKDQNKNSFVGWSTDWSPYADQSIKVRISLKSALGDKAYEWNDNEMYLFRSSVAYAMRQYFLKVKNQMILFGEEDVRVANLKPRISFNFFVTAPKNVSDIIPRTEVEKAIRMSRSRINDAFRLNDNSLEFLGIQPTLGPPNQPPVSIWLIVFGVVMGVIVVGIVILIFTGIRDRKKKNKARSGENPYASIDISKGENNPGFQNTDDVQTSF

This assay addresses recombinant human ACE2 (Homo sapiens, UniProt Q9BYF1).
Take B1: the binding result is on record as “binds”.

Take B2: the binding result was “binds”.

Turning to B3, the binding result is given as “binds”.

For B4, the binding result is reported as “binds”.

Take B5: the binding result is “binds”.

For B6, the binding result was “binds”.

For the molecule B7, the binding result was “binds”.

Take B8: the binding result is recorded as “binds”.

Turning to B9, the binding result is listed as “binds”.

For the molecule B10, the binding result is reported as “binds”.

As to B11, the binding result was “binds”.

(Values after article PMC10415184, “A placental model of SARS-CoV-2 infection reveals ACE2-dependent susceptibility and differentiation impairment in syncytiotrophoblasts” (Nature Cell Biology, 2023).)
